Data reported in the nanobody polyreactivity screen of Harvey et al. (2022).

Assay: yeast display, Sf9 membrane polyspecificity reagent, FACS + sequencing; frameworks hold sequencing errors
Summary of the method: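 Nanobodies from a synthetic yeast display library (Saccharomyces cerevisiae BJ5465), induced 36–48 hours with galactose, were stained 1 hour at 4 °C with 10% biotinylated, detergent-solubilized Sf9 membrane reagent, enriched on streptavidin microbeads, then FACS-sorted. Anti-HA (expression) and streptavidin (reagent binding) fluorescence set low and high (top ~1%) gates. Polyreactivity labels come from the gate of origin. Genes were colony-PCR amplified, MiSeq 2 × 250 sequenced and filtered by CDR length.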
With “QVQLVESGGGLVQAGGSLRLSCAASGIIFWRYAMGWYRQAPGKERELVAAISSSGSTYYADSVKGRFTISRDNAKNTVYLQMNSLKPEDTAVYYCAAYSYPAGEYDYWGQGTQVTVSS” the “polyreactivity (PSR sort gate)” value was “low polyreactivity”. For “QVQLVESGGGLVQAGGSLRLSCAASGIIFWRYAMGWYRQAPGKERELVAGITSRGGSTYYADSVKGRFTISRDNAKNTVYLQMNSLKPEDTAVYYCNADWYGQLWWGVDYWGQGTQVTVSS”, the “polyreactivity (PSR sort gate)” value was “high polyreactivity”. With “QVQLVESGGGLVQAGGSLRLSCAASGIIFWWYAMGWYRQAPGKERELVAAISGTGGSTYYADSVKGRFTISRDNAKNTVYFQMNSLKPEDTAVYYCAARGKSSSYYDYDYWGQGTQVTVSS” the “polyreactivity (PSR sort gate)” value was “low polyreactivity”. In the case of “QVQLVESGGGLVQAGGSLRLSCAASGIIFWYNAMGWYRQAPGKERELVASISTGGRTYYADSVKGRFTISRDNAKYTVYLQMNSLKPEDTAVYYCAAASRVGFLYYYWGQGTQVTVSS”, the “polyreactivity (PSR sort gate)” value is reported as “low polyreactivity”. With “QVQLVESGGGLVQAGGSLRLSCAASGIIFWYYAMVWYRHAPGKERELVASISGTGGTTYYADSVKGRFTISRDNAKNTVYLQMNSLKPEDTAVYDCSALSGQHDYDYWGQGTQVTVSS” the “polyreactivity (PSR sort gate)” value was “low polyreactivity”. In the case of “QVQLVESGGGLVQAGGSLRLSCAASGIIFYANAMGWYRQAPGKERELVAAISWSGSSTYYADSVKGRFTISRDNAKNTVYLQMNSLKPEDTAVYYCNKATSSVRYLKYYYWGQGTQVTVSS”, the “polyreactivity (PSR sort gate)” value is reported as “high polyreactivity”. For “QVQLVESGGGLVQAGGSLRLSCAASGIIFYAYAMGWYRQAPGKEREFVAAINNSGGRTYYADSVKGRFTISRDNAKNTVYLQMNSLKPEDTAVYYCAVYSYYRRTYRREMDYWGQGTQVTVSS”, the “polyreactivity (PSR sort gate)” value was “high polyreactivity”. With “QVQLVESGGGLVQAGGSLRLSCAASGIIFYAYDMGWYRQAPGKERELVAAITFSAVSTYYADSVKGRFTISRDNAKNTVYLQMNSLKPEDTAVYYCAAEAYKHGVWDYDYWGQGTQVTVSS” the “polyreactivity (PSR sort gate)” value was “low polyreactivity”. For “QVQLVESGGGLVQAGGSLRLSCAASGIIFYEYTMGWYRQAPGKERELVARISLRGGNTYYADSVKGRFTISRDNAKNTVYLQMNSLKPEDTAVYYCNADLYRQYASRYHYWGQGTQVTVSS”, the “polyreactivity (PSR sort gate)” value was “high polyreactivity”. In the case of “QVQLVESGGGLVQAGGSLRLSCAASGIIFYEYVMGWYRQAPGKERELVAAINRSGGSTYYADSVKGRFTISRDNAKNTVYLQMNSLKPEDTAVYYCAASSTYDGRKYYYWGQGTQVTVSS”, the “polyreactivity (PSR sort gate)” value is reported as “high polyreactivity”. For “QVQLVESGGGLVQAGGSLRLSCAASGIIFYGNAMGWYRQAPGKERELVAAISWSGSSTYYADSVKGRFTISRDNAKNTVYLQMNSLKPEDTAVYYCNKATSSVRYLKYYYWGQGTQVTVSS”, the “polyreactivity (PSR sort gate)” value was “high polyreactivity”. With “QVQLVESGGGLVQAGGSLRLSCAASGIIFYGNAMGWYRQAPGKERELVAAITWSGGSTYYADSVKGRFTISRDNAKNTVYLQLTSLKPEDTAVYYCAADFLYGFYYWGQGTQVTVSS” the “polyreactivity (PSR sort gate)” value was “low polyreactivity”. For “QVQLVESGGGLVQAGGSLRLSCAASGIIFYGYAMGWYRQAPGKERELVAAISSGGGTNYADSVKGRFTISRDNAKNTVYLQMNSLKPEDTAVYYCAAGGKKRDDYWGQGTQVTVSS”, the “polyreactivity (PSR sort gate)” value was “high polyreactivity”. For “QVQLVESGGGLVQAGGSLRLSCAASGIIFYGYAMGWYRQAPGKERELVATIRDSGAGTYYADSVKGRFTISRDNAKNTVYLQMNSLKPEDTAVYYCAATGWIRYDSWGQGTQVTVSS”, the “polyreactivity (PSR sort gate)” value was “low polyreactivity”. With “QVQLVESGGGLVQAGGSLRLSCAASGIIFYHNTMGWYRQAPGKERELVAAISGSGGSTYYADSVKGRFTISRDNEKNTVYLQMKSLKPEDTAVYYCAAYRRRYPGFDYWGQGTQVTVSS” the “polyreactivity (PSR sort gate)” value was “high polyreactivity”. With “QVQLVESGGGLVQAGGSLRLSCAASGIIFYHYAMGWYRQPPGKERELVAAITWSGGTTYYADSVKGRFTISRDNAKNTVYLQMNSMKPEDTAVYYCNADYVPYGFDYWGQGTQVTVSS” the “polyreactivity (PSR sort gate)” value was “low polyreactivity”. For “QVQLVESGGGLVQAGGSLRLSCAASGIIFYIYAMGWYRQAPGKERELVAAISSGGNTYYADSVKGRFTISRDNAKNTVYLQMNSLKPEDTAVYYCAAYSRKVSFQYRYDYWGQGTQVTVSS”, the “polyreactivity (PSR sort gate)” value was “high polyreactivity”. With “QVQLVESGGGLVQAGGSLRLSCAASGIIFYIYAMGWYRQAPGKERELVAAITSSGGSTNYADSVKGRFTISRDNAKNTVYLQMNSLKPEDTAVYYCAAAYRPWQEFYWGQGTQVTVSS” the “polyreactivity (PSR sort gate)” value was “high polyreactivity”. With “QVQLVESGGGLVQAGGSLRLSCAASGIIFYIYTMGWYRQAPGKERELVAAINRSGFRTYYADSVKGRFTISRDNAKNTVYLQMNSLKPEDTAVYYCAAGTGSRDYYWGQGTQVTVSS” the “polyreactivity (PSR sort gate)” value was “high polyreactivity”. For “QVQLVESGGGLVQAGGSLRLSCAASGIIFYIYTMGWYRQAPGKERELVAAINRSGSRTYYADSVKGRFTISRDNAKNTVYLQMNSLKPEDTAVYYCAAGTGSRDDYWGQGTQVTVSS”, the “polyreactivity (PSR sort gate)” value was “high polyreactivity”. With “QVQLVESGGGLVQAGGSLRLSCAASGIIFYKYAMGWYRQAPGKERELVAAITSGGGRTYYADSVKGRFTISRDNPKNSVYLQMNSLKPEDTAVYYCAATRPATYAAYDYWGQGTQVTVSS” the “polyreactivity (PSR sort gate)” value was “high polyreactivity”. For “QVQLVESGGGLVQAGGSLRLSCAASGIIFYKYTMGWYRQAPGKERELVAAITKSGVRTYYADSVKGRFTISRDNAKNTVYLQMKSLKPEDTSVYYCAAKTPTKDRGSDFDYWGQGTQVTVSS”, the “polyreactivity (PSR sort gate)” value was “high polyreactivity”. For “QVQLVESGGGLVQAGGSLRLSCAASGIIFYPNAMGWYRQAPGKERELVAAITGSGGSTYYADSVKGRFTISRDNAKNTVYLQMNSLKPEDTAVYYCNARVYWYYPMDYWGQGTQVTVSS”, the “polyreactivity (PSR sort gate)” value was “low polyreactivity”. For “QVQLVESGGGLVQAGGSLRLSCAASGIIFYQYAMGRNRQAPGKERELVAAISSGVNTYYADSVKGRFTISRDNAKNTVYLQMNSLKPEDTAVYYCAAEKGRLYDWFDIYYIEYYYWGQGTQVTVSS”, the “polyreactivity (PSR sort gate)” value was “high polyreactivity”. For “QVQLVESGGGLVQAGGSLRLSCAASGIIFYQYAMGWYRQAPGKERELVAAINTSGGSTYADSVKGRFTISRDNAKNTVYLQMNSLKPEDTAVYYCAASYRYVRWKWGYNYWGQGTQVTVSS”, the “polyreactivity (PSR sort gate)” value was “high polyreactivity”. For “QVQLVESGGGLVQAGGSLRLSCAASGIIFYRNAMGWYRQAPGKERELVAGITSGGSTYYADSVKGRFTISRDNAKNTVYLQMNSLKPEYTAVYYCAAYYRASQRYLQYGYWGQGTQVTVSS”, the “polyreactivity (PSR sort gate)” value was “high polyreactivity”. In the case of “QVQLVESGGGLVQAGGSLRLSCAASGIIFYRYAMGWYRQAPGKERELVAAISASGDSTYYADSVKGRFTISRDNAKNTVYLQMNSLKPEDTAVYYCAADYGYRYDYWGQGTQVTVSS”, the “polyreactivity (PSR sort gate)” value is reported as “low polyreactivity”. In the case of “QVQLVESGGGLVQAGGSLRLSCAASGIIFYRYAMGWYRQAPGKERELVSAITWSGVSTSYADSVKGRFTISRDNAKNTVYLQMNSLKPEDTAVYYCAATNYGTFWGGQSERYDYWGQGTQVTVSS”, the “polyreactivity (PSR sort gate)” value is reported as “low polyreactivity”. In the case of “QVQLVESGGGLVQAGGSLRLSCAASGIIFYRYAMGWYRQAPGKESELVAAITWSGVSTSYADSVKGRFTISRDNAKNTVYLQMNSLKPEDTAVYYCNKDPGTLYGDMDSWGQGTQVTVSS”, the “polyreactivity (PSR sort gate)” value is reported as “low polyreactivity”. For “QVQLVESGGGLVQAGGSLRLSCAASGIIFYRYAMGWYRQAPGKEWELVAAITWRGGSTYYADSVKGRFTISRDNAKNTVYLQMTSLKPEDTAVYYCAARRRATYEFDYWGQGTQVTVSS”, the “polyreactivity (PSR sort gate)” value was “high polyreactivity”. For “QVQLVESGGGLVQAGGSLRLSCAASGIIFYSNTMGWYRQAPGKERELVAGISRSGSSTYYADSVKGRFTISRDIAKNTVYLQMNSLKPEDTAVYYCADYRYGVTNAYGYWGQGTQVTVSS”, the “polyreactivity (PSR sort gate)” value was “high polyreactivity”. In the case of “QVQLVESGGGLVQAGGSLRLSCAASGIIFYSNTMGWYRQAPGKERELVAGISRSGSSTYYADSVKGRFTISRDNAKNTVYLQMNSLKPEDTAVYYCAAYRYGVTNAYGYWGQGTQVTVSS”, the “polyreactivity (PSR sort gate)” value is reported as “high polyreactivity”. With “QVQLVESGGGLVQAGGSLRLSCAASGIIFYSYAMGWYRQAPGKERELVAAISWSGGSTYYADSVKGRFTISRDNAKNTVYLQMNSLKPEDTAVYYCAKDGYPYLSWLRSAHYDYWGQGTQVTVSS” the “polyreactivity (PSR sort gate)” value was “low polyreactivity”. With “QVQLVESGGGLVQAGGSLRLSCAASGIIFYVNAMGWYRPAPGKDRELVAAITFGGDSTYYADSVKGRFTITRDNAKNTVYLQMNSLKQEDTAVYYWAAEGLSLGGYYYWGQGTQVTVSS” the “polyreactivity (PSR sort gate)” value was “low polyreactivity”. In the case of “QVQLVESGGGLVQAGGSLRLSCAASGIIFYWNAMGWYRQAPGKEREFVASISGSGGSTYADSVKGRFTISRDNAKKTVYLQMNSLKPEDTAVYYCAADFSNVGVQHDYYWGQGTQVTVSS”, the “polyreactivity (PSR sort gate)” value is reported as “high polyreactivity”. With “QVQLVESGGGLVQAGGSLRLSCAASGIIFYYYAMGWYRQAPGKERELVACISYSGGSTYADSVKGRFTISRDNAKNTVYLQMNSLKPEDTAVYYCAADYDYGGHWYDYWGQGTQVTVSS” the “polyreactivity (PSR sort gate)” value was “low polyreactivity”. With “QVQLVESGGGLVQAGGSLRLSCAASGIIFYYYGKGWYRQAPGKEREFVAAISTSGGNTYYADSVKGRFTISRDNAKNTVYLQMNSLKPEDTAVYYCAADDWPWGDAGVDYWGQGTQVTVSS” the “polyreactivity (PSR sort gate)” value was “low polyreactivity”. With “QVQLVESGGGLVQAGGSLRLSCAASGIIFYYYTIGWYRPAPGKERELVASITWSGGGSTYYADSVKGRFTISRDNAKNTVYLQMNCLNPEDTAVYYCNADEYYSYYYWGQGTQVTVSS” the “polyreactivity (PSR sort gate)” value was “low polyreactivity”. In the case of “QVQLVESGGGLVQAGGSLRLSCAASGIIFYYYTMGWYRQAPGKERELVAAISFSGSNTYYADSVKGRFTISRDNAKNTVYLQMNSLKPEDTAVYYCAARARKDSNRRTYGYWGQGTQVTVSS”, the “polyreactivity (PSR sort gate)” value is reported as “high polyreactivity”. In the case of “QVQLVESGGGLVQAGGSLRLSCAASGIIFYYYTMGWYRQAPGKERELVASISRDGGSTHYADSVKGRFTISRDNAKNTVYLLMNSLKPEDTAVYYCAARDPTGSSYAFYRRKVYYWGQGTQVTVSS”, the “polyreactivity (PSR sort gate)” value is reported as “high polyreactivity”. For “QVQLVESGGGLVQAGGSLRLSCAASGIIIKNYSMGWYRQAPGKEREFVAAISYSGTNTYYADSVKGRFTISRDYAKNTVYLQMNSLKPEDTAVYYCARRKTVVYLAGGRRDYYSWGQGTQVTVSS”, the “polyreactivity (PSR sort gate)” value was “high polyreactivity”. In the case of “QVQLVESGGGLVQAGGSLRLSCAASGIIILEYVMGSYRQAPGKERELVAAINSGGSTYYADSVKGRFTISRDNAKNTVYLQMNSLKPEDTAVYYCAADDYYKFDYWGQGTQVTVSS”, the “polyreactivity (PSR sort gate)” value is reported as “low polyreactivity”. In the case of “QVQLVESGGGLVQAGGSLRLSCAASGIIIQYYAMGWYRQAPGKERELVATITLRGGITYYADSVKGRFTISRDNAKNTVYLQMNCLKPEDTAVYYCNTDQGTTSDYGYWGQGTQVTVSS”, the “polyreactivity (PSR sort gate)” value is reported as “low polyreactivity”.
